{"source": "patent US20250262210A1", "about": "(TRUSTEES OF COLUMBIA UNIVERSITY IN THE CITY OF NEW YORK, published 2025)", "key": {"SEC24D": {"target": "T1, SEC24D (human, UniProt O94855 1-1032, limits assumed)", "T1 sequence (looked up)": "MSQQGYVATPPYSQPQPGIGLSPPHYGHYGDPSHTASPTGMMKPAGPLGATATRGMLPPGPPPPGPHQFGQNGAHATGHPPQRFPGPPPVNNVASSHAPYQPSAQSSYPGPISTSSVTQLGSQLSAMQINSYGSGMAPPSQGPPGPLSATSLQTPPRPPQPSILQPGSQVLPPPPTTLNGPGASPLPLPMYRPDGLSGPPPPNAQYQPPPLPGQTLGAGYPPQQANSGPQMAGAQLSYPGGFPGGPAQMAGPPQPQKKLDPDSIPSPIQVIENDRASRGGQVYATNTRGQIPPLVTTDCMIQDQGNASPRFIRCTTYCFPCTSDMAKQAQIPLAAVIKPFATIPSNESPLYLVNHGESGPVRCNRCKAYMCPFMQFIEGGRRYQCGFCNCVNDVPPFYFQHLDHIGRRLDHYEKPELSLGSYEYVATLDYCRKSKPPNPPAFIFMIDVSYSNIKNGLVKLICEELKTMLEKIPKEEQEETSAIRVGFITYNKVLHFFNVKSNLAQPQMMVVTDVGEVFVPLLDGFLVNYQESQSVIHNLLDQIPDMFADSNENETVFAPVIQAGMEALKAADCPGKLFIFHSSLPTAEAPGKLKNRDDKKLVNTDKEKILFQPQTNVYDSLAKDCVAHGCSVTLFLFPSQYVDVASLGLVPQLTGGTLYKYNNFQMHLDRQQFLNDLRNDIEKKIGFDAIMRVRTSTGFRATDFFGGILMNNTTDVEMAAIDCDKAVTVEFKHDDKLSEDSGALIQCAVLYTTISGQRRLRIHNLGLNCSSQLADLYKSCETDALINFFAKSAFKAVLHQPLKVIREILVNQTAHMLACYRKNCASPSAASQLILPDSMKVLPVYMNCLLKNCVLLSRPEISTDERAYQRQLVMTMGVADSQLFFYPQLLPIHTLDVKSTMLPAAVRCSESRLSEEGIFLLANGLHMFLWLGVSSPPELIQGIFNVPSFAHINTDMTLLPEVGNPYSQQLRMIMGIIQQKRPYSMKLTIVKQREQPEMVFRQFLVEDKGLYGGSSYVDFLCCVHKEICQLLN", "test": "IP/MS, LZTR1 R810W-FLAG, U87", "outline": "(§1)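 Extracted peptides in 3% acetonitrile/0.1% formic acid ran on a 50 cm C18 column into an Orbitrap Fusion, with MaxQuant identification and spectral counting.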"}, "LAMB3": {"target": "T2, LAMB3 (human, UniProt Q13751 18-1172)", "T2 sequence (looked up)": "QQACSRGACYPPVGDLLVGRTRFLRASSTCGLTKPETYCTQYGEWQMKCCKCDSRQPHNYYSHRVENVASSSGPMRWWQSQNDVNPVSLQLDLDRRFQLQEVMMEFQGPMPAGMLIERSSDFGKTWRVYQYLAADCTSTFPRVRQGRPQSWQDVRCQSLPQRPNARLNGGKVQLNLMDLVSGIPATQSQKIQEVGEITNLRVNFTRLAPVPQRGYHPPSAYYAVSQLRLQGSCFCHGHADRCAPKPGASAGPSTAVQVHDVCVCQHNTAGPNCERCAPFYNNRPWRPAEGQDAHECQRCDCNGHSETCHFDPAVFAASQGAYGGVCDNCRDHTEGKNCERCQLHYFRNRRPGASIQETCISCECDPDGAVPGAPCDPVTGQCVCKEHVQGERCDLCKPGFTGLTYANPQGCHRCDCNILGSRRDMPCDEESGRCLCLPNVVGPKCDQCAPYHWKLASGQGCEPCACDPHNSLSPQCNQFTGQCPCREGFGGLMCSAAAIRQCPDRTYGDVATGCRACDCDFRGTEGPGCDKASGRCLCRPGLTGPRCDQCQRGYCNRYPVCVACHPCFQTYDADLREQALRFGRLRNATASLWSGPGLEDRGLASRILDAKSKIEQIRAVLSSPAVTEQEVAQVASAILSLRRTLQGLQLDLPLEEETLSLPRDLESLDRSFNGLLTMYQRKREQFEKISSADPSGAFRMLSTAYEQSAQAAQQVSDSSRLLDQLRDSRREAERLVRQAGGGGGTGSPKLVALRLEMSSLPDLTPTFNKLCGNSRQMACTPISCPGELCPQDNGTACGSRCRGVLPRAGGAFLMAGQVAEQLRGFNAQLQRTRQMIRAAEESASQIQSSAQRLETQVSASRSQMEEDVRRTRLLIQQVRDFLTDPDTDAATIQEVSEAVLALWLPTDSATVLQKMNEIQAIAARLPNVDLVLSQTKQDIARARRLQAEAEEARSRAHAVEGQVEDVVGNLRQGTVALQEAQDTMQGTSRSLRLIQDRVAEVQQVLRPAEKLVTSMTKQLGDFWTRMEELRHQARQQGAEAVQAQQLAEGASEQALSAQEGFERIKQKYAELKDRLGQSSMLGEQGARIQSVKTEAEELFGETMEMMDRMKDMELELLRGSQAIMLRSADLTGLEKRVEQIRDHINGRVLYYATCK", "test": "IP/MS, LZTR1 R810W-FLAG, U87", "outline": "as §1"}}}
{"binder": "LZTR1 R810W-FLAG (other, human, UniProt Q8N653 1-840, looked up, Stably expressed in U87 cells by lentivirus; also called LZTR1-FLAG-R810W; LZTR1 RW; not shown: FLAG tag) MAGPGSTGGQIGAAALAGGARSKVAPSVDFDHSCSDSVEYLTLNFGPFETVHRWRRLPPCDEFVGARRSKHTVVAYKDAIYVFGGDNGKTMLNDLLRFDVKDCSWCRAFTTGTPPAPRYHHSAVVYGSSMFVFGGYTGDIYSNSNLKNKNDLFEYKFATGQWTEWKIEGRLPVARSAHGATVYSDKLWIFAGYDGNARLNDMWTIGLQDRELTCWEEVAQSGEIPPSCCNFPVAVCRDKMFVFSGQSGAKITNNLFQFEFKDKTWTRIPTEHLLRGSPPPPQRRYGHTMVAFDRHLYVFGGAADNTLPNELHCYDVDFQTWEVVQPSSDSEVGGAEVPERACASEEVPTLTYEERVGFKKSRDVFGLDFGTTSAKQPTQPASELPSGRLFHAAAVISDAMYIFGGTVDNNIRSGEMYRFQFSCYPKCTLHEDYGRLWESRQFCDVEFVLGEKEECVQGHVAIVTARSRWLRRKITQARERLAQKLEQEAAPVPREAPGVAAGGARPPLLHVAIREAEARPFEVLMQFLYTDKIKYPRKGHVEDVLLIMDVYKLALSFQLCRLEQLCRQYIEASVDLQNVLVVCESAARLQLSQLKEHCLNFVVKESHFNQVIMMKEFERLSSPLIVEIVRRKQQPPPRTPLDQPVDIGTSLIQDMKAYLEGAGAEFCDITLLLDGHPRPAHKAILAARSSYFEAMFRSFMPEDGQVNISIGEMVPSRQAFESMLRYIYYGEVNMPPEDSLYLFAAPYYYGFYNNRLQAYCKQNLEMNVTVQNVLQILEAADKTQALDMKRHCLHIIVHQFTKVSKLPTLWSLSQQLLLDIIDSLASHISDKQCAELGADI", "values": [{"measurement": "binding result", "setting": "SEC24D", "result": "binds"}, {"measurement": "binding result", "setting": "LAMB3", "result": "binds"}]}
